The supplement of paper PMC9112550, “Optimization of the antimicrobial peptide Bac7 by deep mutational scanning” (BMC Biology, 2022)

Test system: Escherichia coli TOP10
Experiment: shrunken log2 fold change of peptide-encoding DNA abundance (4.5 h post-induction vs induction); higher = less antimicrobial activity (less host growth inhibition)
Settings: time post-induction: 4.5 h; library: site-saturation at positions 5, 18, 19, 20
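Note: peptides expressed intracellularly from a pBAD plasmid library in pooled LB shake-flask culture, induced with 0.3% L-arabinose, DNA abundance read by NGS, three biological replicates, DESeq2 with apeglm shrinkage.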

Sequence	shrunken log2 fold change
RRIRVRPPRLPRPRPRPACMPRP	-0.0781
RRIRDRPPRLPRPRPRPQKWPRP	0.15
RRIRTRPPRLPRPRPRPNIAPRP	-0.239
RRIRERPPRLPRPRPRPEHYPRP	-0.454
RRIRTRPPRLPRPRPRPKVCPRP	-0.00594
RRIRCRPPRLPRPRPRPPARPRP	0.735
RRIRYRPPRLPRPRPRPHCRPRP	-0.372
RRIRHRPPRLPRPRPRPIRWPRP	0.171
RRIRVRPPRLPRPRPRPMYMPRP	-0.748
RRIRERPPRLPRPRPRPLQGPRP	-0.179
RRIRLRPPRLPRPRPRPAISPRP	0.118
RRIRERPPRLPRPRPRPVCYPRP	-0.266
RRIRSRPPRLPRPRPRPPAWPRP	0.436
RRIRRRPPRLPRPRPRPIFFPRP	0.261
RRIRARPPRLPRPRPRPVVKPRP	0.298
RRIRMRPPRLPRPRPRPPPQPRP	1.79
RRIRVRPPRLPRPRPRPWGVPRP	-0.15
RRIRARPPRLPRPRPRPLTCPRP	-0.248
RRIRYRPPRLPRPRPRPKGGPRP	0.0198
RRIRNRPPRLPRPRPRPGVNPRP	0.0306
RRIRPRPPRLPRPRPRPTVNPRP	-0.157
RRIRTRPPRLPRPRPRPGGQPRP	0.585
RRIRSRPPRLPRPRPRPEHQPRP	0.163
RRIRTRPPRLPRPRPRPWMCPRP	0.0404
RRIRFRPPRLPRPRPRPCFIPRP	-0.564

Sequence	shrunken log2 fold change
RRIRHRPPRLPRPRPRPYYVPRP	-0.0196
RRIRCRPPRLPRPRPRPMTHPRP	-0.377
RRIRIRPPRLPRPRPRPRNPPRP	-0.0124
RRIRPRPPRLPRPRPRPRTHPRP	0.107
RRIRWRPPRLPRPRPRPCNFPRP	-0.464
RRIRWRPPRLPRPRPRPSMYPRP	-0.326
RRIRARPPRLPRPRPRPPAEPRP	1.15
RRIRQRPPRLPRPRPRPHKYPRP	-1.21
RRIRCRPPRLPRPRPRPFIGPRP	-0.228
RRIRHRPPRLPRPRPRPTQVPRP	0.172
RRIRARPPRLPRPRPRPTENPRP	0.381
RRIRWRPPRLPRPRPRPMPGPRP	0.0623
RRIRERPPRLPRPRPRPWDMPRP	-0.212
RRIRVRPPRLPRPRPRPLEVPRP	0.0693
RRIRCRPPRLPRPRPRPQWRPRP	0.274
RRIRKRPPRLPRPRPRPWLWPRP	0.00796
RRIRWRPPRLPRPRPRPRMSPRP	0.139
RRIRKRPPRLPRPRPRPQCLPRP	0.131
RRIRLRPPRLPRPRPRPGHRPRP	-0.114
RRIRVRPPRLPRPRPRPCGCPRP	0.0165
RRIRCRPPRLPRPRPRPIMHPRP	-0.135
RRIRNRPPRLPRPRPRPADCPRP	0.131
RRIRRRPPRLPRPRPRPMMWPRP	0.487
RRIRKRPPRLPRPRPRPLCPPRP	-0.145
RRIRARPPRLPRPRPRPCAPPRP	0.384

Sequence	shrunken log2 fold change
RRIRARPPRLPRPRPRPHWHPRP	-0.0354
RRIRPRPPRLPRPRPRPRCYPRP	0.0458
RRIRERPPRLPRPRPRPVSPPRP	-0.33
RRIRTRPPRLPRPRPRPNPRPRP	0.23
RRIRARPPRLPRPRPRPLNLPRP	0.0866
RRIRPRPPRLPRPRPRPVWNPRP	-0.109
RRIRHRPPRLPRPRPRPLDNPRP	-0.515
RRIRWRPPRLPRPRPRPQFGPRP	0.0671
RRIRRRPPRLPRPRPRPLHPPRP	0.437
RRIRVRPPRLPRPRPRPYQWPRP	-0.175
RRIRFRPPRLPRPRPRPGNQPRP	-0.00933
RRIRHRPPRLPRPRPRPISAPRP	-0.0622
RRIRHRPPRLPRPRPRPPWLPRP	0.242
RRIRNRPPRLPRPRPRPGQTPRP	0.00913
RRIRVRPPRLPRPRPRPNYYPRP	-0.373
RRIRLRPPRLPRPRPRPHRMPRP	-0.0961
RRIRARPPRLPRPRPRPNRCPRP	0.0646
RRIRHRPPRLPRPRPRPDWVPRP	-0.0196
RRIRIRPPRLPRPRPRPLLFPRP	-0.553
RRIRYRPPRLPRPRPRPGVEPRP	0.0346
RRIRHRPPRLPRPRPRPSLDPRP	-0.22
RRIRYRPPRLPRPRPRPKRWPRP	0.165
RRIRWRPPRLPRPRPRPLIPPRP	-0.327
RRIRYRPPRLPRPRPRPTFIPRP	-0.0922
RRIRKRPPRLPRPRPRPFETPRP	0.163

Sequence	shrunken log2 fold change
RRIRMRPPRLPRPRPRPTYFPRP	-0.0299
RRIRHRPPRLPRPRPRPFQKPRP	0.00797
RRIRIRPPRLPRPRPRPYHLPRP	-0.115
RRIRFRPPRLPRPRPRPPWSPRP	0.204
RRIRMRPPRLPRPRPRPPYFPRP	0.104
RRIRQRPPRLPRPRPRPDTVPRP	-0.171
RRIRKRPPRLPRPRPRPQGGPRP	0.0321
RRIRLRPPRLPRPRPRPQYNPRP	-0.791
RRIRVRPPRLPRPRPRPFCGPRP	-0.0559
RRIRGRPPRLPRPRPRPPFMPRP	0.557
RRIRVRPPRLPRPRPRPSAWPRP	0.804
RRIRSRPPRLPRPRPRPEWYPRP	0.341
RRIRIRPPRLPRPRPRPYSKPRP	-1.2
RRIRTRPPRLPRPRPRPMTTPRP	0.000642
RRIRWRPPRLPRPRPRPLGTPRP	0.0928
RRIRVRPPRLPRPRPRPYGGPRP	-0.374
RRIRVRPPRLPRPRPRPIRPPRP	-0.0154
RRIRKRPPRLPRPRPRPGMCPRP	0.863
RRIRERPPRLPRPRPRPCKRPRP	-0.294
RRIRGRPPRLPRPRPRPWPDPRP	0.194
RRIRSRPPRLPRPRPRPWRRPRP	0.0927
RRIRPRPPRLPRPRPRPRGCPRP	0.251
RRIRDRPPRLPRPRPRPKRCPRP	0.0311
RRIRVRPPRLPRPRPRPWGIPRP	-0.265
RRIRKRPPRLPRPRPRPEQSPRP	0.94

Sequence	shrunken log2 fold change
RRIRNRPPRLPRPRPRPNSAPRP	0.026
RRIRKRPPRLPRPRPRPWSRPRP	-0.0012
RRIRPRPPRLPRPRPRPVDVPRP	-0.0323
RRIRFRPPRLPRPRPRPIFWPRP	0.192
RRIRCRPPRLPRPRPRPYNPPRP	-1.15
RRIRMRPPRLPRPRPRPCEEPRP	0.0566
RRIRRRPPRLPRPRPRPMISPRP	0.044
RRIRKRPPRLPRPRPRPPIYPRP	0.0758
RRIRARPPRLPRPRPRPDHNPRP	-0.154
RRIRGRPPRLPRPRPRPDNDPRP	0.0238
RRIRMRPPRLPRPRPRPIDIPRP	0.476
RRIRIRPPRLPRPRPRPNFLPRP	-0.677
RRIRPRPPRLPRPRPRPNSCPRP	-0.241
RRIRCRPPRLPRPRPRPYKFPRP	-0.279
RRIRSRPPRLPRPRPRPYFQPRP	-0.951
RRIRYRPPRLPRPRPRPKKFPRP	-0.0477
RRIRERPPRLPRPRPRPMQHPRP	-0.04
RRIRLRPPRLPRPRPRPKRSPRP	0.558
RRIRMRPPRLPRPRPRPHTAPRP	-0.000764
RRIRFRPPRLPRPRPRPSNPPRP	-0.674
RRIRERPPRLPRPRPRPSYYPRP	-0.126
RRIRRRPPRLPRPRPRPAENPRP	0.0557
RRIRARPPRLPRPRPRPEVGPRP	1.42
RRIRFRPPRLPRPRPRPDFLPRP	-0.453
RRIRERPPRLPRPRPRPFHNPRP	-0.413

Sequence	shrunken log2 fold change
RRIRNRPPRLPRPRPRPVDQPRP	-0.213
RRIRTRPPRLPRPRPRPHIKPRP	-0.616
RRIRDRPPRLPRPRPRPPHAPRP	0.631
RRIRGRPPRLPRPRPRPRESPRP	1.26
RRIRSRPPRLPRPRPRPAWMPRP	-0.263
RRIRKRPPRLPRPRPRPTFDPRP	0.227
RRIRMRPPRLPRPRPRPEEKPRP	2.64
RRIRKRPPRLPRPRPRPKEYPRP	0.191
RRIRSRPPRLPRPRPRPTYDPRP	-0.262
RRIRARPPRLPRPRPRPLCTPRP	0.223
RRIRYRPPRLPRPRPRPNGFPRP	-0.219
RRIRHRPPRLPRPRPRPTDHPRP	-0.487
RRIRTRPPRLPRPRPRPTSYPRP	-0.268
RRIRARPPRLPRPRPRPRGHPRP	0.644
RRIRQRPPRLPRPRPRPVHEPRP	0.536
RRIRARPPRLPRPRPRPMQRPRP	0.383
RRIRPRPPRLPRPRPRPYCKPRP	-0.896
RRIRCRPPRLPRPRPRPQDNPRP	-0.285
RRIRNRPPRLPRPRPRPNNYPRP	-1.01
RRIRSRPPRLPRPRPRPDHPPRP	-0.0828
RRIRDRPPRLPRPRPRPVHHPRP	0.0594
RRIRDRPPRLPRPRPRPPSVPRP	0.258
RRIRQRPPRLPRPRPRPTCWPRP	0.0954
RRIRKRPPRLPRPRPRPHTKPRP	-0.0306
RRIRHRPPRLPRPRPRPEIIPRP	-0.496
